Assay: label from the status in PepcDB records
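Also: failed if final PepcDB status was selected cloned or expressed and not failed if soluble or beyond.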

| Sequence | protein production |
| --- | --- |
| MFRVTGTLSAASSPAVAAASFSAALRLSITPTLAIASPPHLRWFSKFSRQFLGGRISSLRPRIPSPCPIRLSGFPALKMRASFSSGSSGSSASREILVQHLLVKNNDVELFAELQKKFLDGEEMSDLAAEYSICPSKKDGGILGWVKLGQMVPEFEEAAFKAELNQVVRCRTQFGLHLLQVLSEREPVKDIQVEELHSKMQDPVFMDEAQLIDVREPNEIEIASLPGFKVFPLRQFGTWAPDITSKLNPEKDTFVLCKVGGRSMQVANWLQSQGFKSVYNITGGIQAYSLKVDPSIPTY | failed |
| MLDPATIVAVPAPGRACGPCTLCCKVYDVPAVESPAGRWCRHVRSGGGCGIHAERPDHCRAFHCLWMTETWIGPEWRPDRAKMVLSLDPVTRFLNVQVDPGQAGAWKRAPYHDQLRRWAAASLPLQRYVLVHVNKVTTVVLPDRDVALGTFGPGDRLVGRERMTPAGMTADVEKVSQLA | failed |
| MTTTGHVHFYIGTYTNPPSTSTSTGIARLSLNTETGELTRLDDVVVQRNPSYLTTTEHGLYTFSEMDRNEGTELAFFRGSESVSLPINGDYPCHLDIKEPLLAVANYGSGNVSVFQLDRDGKPLGLLADLYVDGCGPNLERQTSPHAHQVTFLKHSHQLVVVDLGSDSVLIYDYDAQPPDFSLSQVIHLPAGSGPRHVVFNQQESTAYVVCELSETLIVLVKHQDKWLISNQTELLEGEENQQAAAAIRLSQDETFLYVSCRAQNKISMFDVSGDTPKRRAAIHCEGVFPRDFVLSHDQKWLLVANQHSNNVVSFRRNPQTGEITPTGYDCEIGSPVCIVEQPLLEHHHHHH | failed |
| MESYSPAQTCLELVPVLADDSISAASTSDVQDRLSALESRVQQQEDEITVLKAALADVLRRLAISEDHVASVKKSMPSKGQPSLREAISMSCITNGSGINRKQNHTSSISIARKETLSSAAKSGTEKKKEKPQGQREKKEESHSNDQSPQIRASPSPQPSSQPLQINRQTPESKSSAPTKSIKRPPTAEKSHNSWENSDDSRNKLLKTVSTSKLISKVIKNTDKHKDVIINQAKMSTREKSSQEGEYIKMFMRGRPITMFIPSDVDNYDDIRTELPPEKLKLEWVYGYRGKDCRANVYLLPTGEIVYFIASVVVLFNYEERTQRHYLGHTDCVKCLAVHPDKIRMATGQIAGVDKDGRPLQPHVRVWDSVSLSTLHVIGLGTFERGVGCLDFSKADSGVHLCVIDDSNEHMLTVWDWQRKSKVAEIKTTNEVVLAVEFHPTDANTIITCGKSHIFFWTWSGNSLTRKQGIFGKYEKPKFVQCLAFLGNGDVLTGDSGGVMLIWSKTTIEPPPGKGPKGVYQISRQIKAHDGSVFTLCQMRNGMLLTGGGKDRKIILWDHDLNLEREIEVPDQYGTIRAVAEGKAEQFLVGTSRNFILRGTFNDGFQIEVQGHTDELWGLATHPFKDLLLTCAQDRQVCMWNSVEHRLEWTRLVDEPGHCADFHPSGTVVAIGTHSGRWFVLDAETRDLVSIHTDGNEQLSVMRYSVDGTLLAVGSHDNFIYLYAVSENGRKYSRYGKCTGHSSYITHLDWSPDNKHIMSNSGDYEILYWDIENGCKLIRNRSDCKDIDWTTYTCVLGFQVFGVWPEGSDGTDINALVRSHHRRVIAVADDFCKVHLFQYPCSKPKAPSHKYSAHSSHVTNVSFTHNDSHLISTGGKDMSIIQWKLVEKLPLPQNEVIADTSSTKAPASATENARLCNAPQPPSQPLPGTAEEESRVSSSPTLVENSLEQSEWGSEDLGVVIDEEPASERGEKQGAAEASEEEQGAAPLC | failed |
| SRGMTPGSRLIDYQLIDSTEELAAILGCGHPSSIHKITRVRLANDIPMAIESSHIPFELAGELNESHFQSSIYDHIERYNSIPISRAKQELEPSAATTEEANILGIQKGAPVLLIKRTTYLQNGTAFEHAKSVYRGDRYTFVHYMDRLS | failed |
| MIRPEYLRVLRKIYDRLKNEKVNWVVTGSLSFALQGVPVEVHDIDIQTDEEGAYEIERIFSEFVSKKVRFSSTEKICSHFGELIIDGIKVEIMGDIRKRLEDGTWEDPVDLNKYKRFVETHGMKIPVLSLEYEYQAYLKLGRVEKAETLRKWLNERKG | not failed |
| MPLPSSARALKKPRLDDEVRFLRSWIEKPLHMGAVMPSGKLLARTMAHYVDVNSDAPVVELGPGTGAITSALVERGVDQKRLVLVEYNPGFCALLRDRYPQAKVVQGDAYRLRDTLWNVLSAPASAVVSGLPLVTKPMLTRLRLIRDAFTALAPGAPFVQFTYAVVPPIPKSLPGVSTEASERIWMNLPPARVWVYRKD | failed |
| MRRSKADVERYIASVQGSAPSPREKSMKGFYFAKLYYEAKEYDLAKKYISTYINVQERDPKAHRFLGLLYEVEENIDKAVECYKRSVELNPTQKDLVLKIAELLCKNDVTDGRAKYWVERAAKLFPGSPAIYKLKEQLLDCKGEDGWNKLFDLIQSELYARPDDIHVNIRLVELYRSNKRLKDAVAHCHEADRNTALRSSLEWNLCVVQTLKEYLESLQCLDSDKSTWRATNKDLLLAYANLMLLTLSTRDVQEGRELLESFDSALQSVKSSVGGNDELSATFLETKGHFYMHVGSLLLKMGQQSDIQWRALSELAALCYLVAFQVPRPKVKLIKGEAGQNLLETMAHDRLSQSGHMLLNLSRGKQDFLKEVVESFANKSGQSALCDALFSSQSSKERSFLGNDDIGNLDGQVPDPDDLARYDTGAVRAHNGSLQHLTWLGLQWNSLSTLPAIRKWLKQLFHHLPQETSRLETNAPESICILDLEVFLLGVIYTSHLQLKEKCNSHHTSYQPLCLPLPVCRQLCTERQKTWWDAVCTLIHRKALPGTSAKLRLLVQREINSLRGQEKHGLQPALLVHWAQSLQKTGSSLNSFYDQREYIGRSVHYWRKVLPLLKMIRKKNSIPEPIDPLFKHFHSVDIQASEIGEYEEDAHITFAILDAVNGNIEDAMTAFESIKNVVSYWNLALIFHRKAEDIENDALSPEEQEECKNYLRKTRDYLIRILDDSDSNTSVVQKLWYISKQQKFGIWGWEDCTSVRV | failed |
| MVSLPRLASLLTTRLATLKPALKPATHLASLGAQVIAELVPGIRMSPNRRRILPANMGAGFIGAEIAMWWALSPSLLPKPWWVTAANLAVLQAVGHAAATGIHSILPRTNRRVSRKIYNATHIATGAITLTTTVVGLIRHRTQIRLIGQKNFGPKETIAGISVGTLGYGALLITGELTQHSINEVKLLIERFLPPWISFIAAVSVITLTTLTLADRVLLRRILHNSAIQAAHLNRMVFPGTEQPWEPERSGSPWSYEKWGAVGSQGRAVLSGGPRKDDIITVTRLSDTETHEPIRIFIGMVPGRSLSDQVDLVIHEMRRTGALRRDHIVINNSTGTGWITDWSAHTFEFLTGGNCVTISMQYSYLPSALSWYKDNDGPINAARMLIDAVLHELDQLPTGSRPKLFLAGESLGAYGLAEVWGDVEKLLGTADGVLLSGAPRFSDAMNALRTRRDASSSERLPVIDSGRHIRFAGEPEHLDMPATWQFPRMIVAQHASDPIVWWNAELFIRRPEWLKTPKQDHQDVFPRLRWMPFVTGWQVALDLFTSTSVPGGHGHNYHEEFIDYWAALLDREVTPELRHSIAYWIRANHIKR | failed |
| MPCVQAQYGSSPQGASPASQSYSYHSSGEYSSDFLTPEFVKFSMDLTNTEITATTSLPSFSTFMDNYSTGYDVKPPCLYQMPLSGQQSSIKVEDIQMHNYQQHSHLPPQSEEMMPHSGSVYYKPSSPPTPTTPGFQVQHSPMWDDPGSLHNFHQNYVATTHMIEQRKTPVSRLSLFSFKQSPPGTPVSSCQMRFDGPLHVPMNPEPAGSHHVVDGQTFAVPNPIRKPASMGFPGLQIGHASQLLDTQVPSPPSRGSPSNEGLCAVCGDNAACQHYGVRTCEGCKGFFKRTVQKNAKYVCLANKNCPVDKRRRNRCQYCRFQKCLAVGMVKEVVRTDSLKGRRGRLPSKPKSPQEPSPPSPPVSLISALVRAHVDSNPAMTSLDYSRFQANPDYQMSGDDTQHIQQFYDLLTGSMEIIRGWAEKIPGFADLPKADQDLLFESAFLELFVLRLAYRSNPVEGKLIFCNGVVLHRLQCVRGFGEWIDSIVEFSSNLQNMNIDISAFSCIAALAMVTERHGLKEPKRVEELQNKIVNCLKDHVTFNNGGLNRPNYLSKLLGKLPELRTLCTQGLQRIFYLKLEDLVPPPAIIDKLFLDTLPF | not failed |
| MKKFGLGVYLLLLGILGGSLIILGAIVAPIVFKASSVLPELHLTPFESGKLMAQIFVRFNYVLGAIGFVVLLYEIISFIYYKRSLVYLILGVAIGALCLLFVFYYTPYILNAQKAGEAALQSAEFARSHAQSEWLFKELFVLVCALFFWRLLGKNVL | failed |

Reference: a protein production outcome set (Wang et al. 2014)
